Target: T1, acetylated p53 peptides (p53-382/diAc), P04637
T1 chain: RHKK

Protein	deacetylation of p53 peptides in vitro (fluorometric deacetylation assay)	deacetylation of acetylated p53 peptides in vitro (fluorometric deacetylation assay)
recombinant mouse Sirt1 protein (protein) MADEVALALQAAGSPSAAAAMEAASQPADEPLRKRPRRDGPGLGRSPGEPSAAVAPAAAGCEAASAAAPAALWREAAGAAASAEREAPATAVAGDGDNGSGLRREPRAADDFDDDEGEEEDEAAAAAAAAAIGYRDNLLLTDGLLTNGFHSCESDDDDRTSHASSSDWTPRPRIGPYTFVQQHLMIGTDPRTILKDLLPETIPPPELDDMTLWQIVINILSEPPKRKKRKDINTIEDAVKLLQECKKIIVLTGAGVSVSCGIPDFRSRDGIYARLAVDFPDLPDPQAMFDIEYFRKDPRPFFKFAKEIYPGQFQPSLCHKFIALSDKEGKLLRNYTQNIDTLEQVAGIQRILQCHGSFATASCLICKYKVDCEAVRGDIFNQVVPRCPRCPADEPLAIMKPEIVFFGENLPEQFHRAMKYDKDEVDLLIVIGSSLKVRPVALIPSSIPHEVPQILINREPLPHLHFDVELLGDCDVIINELCHRLGGEYAKLCCNPVKLSEITEKPPRPQKELVHLSELPPTPLHISEDSSSPERTVPQDSSVIATLVDQATNNNVNDLEVSESSCVEEKPQEVQTSRNVENINVENPDFKAVGSSTADKNERTSVAETVRKCWPNRLAKEQISKRLEGNQYLFVPPNRYIFHGAEVYSDSEDDVLSSSSCGSNSDSGTCQSPSLEEPLEDESEIEEFYNGLEDDTERPECAGGSGFGADGGDQEVVNEAIATRQELTDVNYPSDKS	Sirt7 and Sirt1 deacetylate p53 peptides in vitro	
recombinant mouse Sirt7 protein (protein) MAAGGGLSRSERKAAERVRRLREEQQRERLRQVSRILRKAAAERSAEEGRLLAESEDLVTELQGRSRRREGLKRRQEEVCDDPEELRRKVRELAGAVRSARHLVVYTGAGISTAASIPDYRGPNGVWTLLQKGRPVSAADLSEAEPTLTHMSITRLHEQKLVQHVVSQNCDGLHLRSGLPRTAISELHGNMYIEVCTSCIPNREYVRVFDVTERTALHRHLTGRTCHKCGTQLRDTIVHFGERGTLGQPLNWEAATEAASKADTILCLGSSLKVLKKYPRLWCMTKPPSRRPKLYIVNLQWTPKDDWAALKLHGKCDDVMQLLMNELGLEIPVYNRWQDPIFSLATPLRAGEEGSHSRKSLCRSREEAPPGDQSDPLASAPPILGGWFGRGCAKRAKRKKVA	Sirt7 and Sirt1 deacetylate p53 peptides in vitro	p53 acetylated peptides were efficiently deacetylated by Sirt7 in vitro
